B1: CARM1, purified human protein (enzyme, UniProt Q86X55 1-608, looked up)
chain: MAAAAAAVGPGAGGAGSAVPGGAGPCATVSVFPGARLLTIGDANGEIQRHAEQQALRLEVRAGPDSAGIALYSHEDVCVFKCSVSRETECSRVGKQSFIITLGCNSVLIQFATPNDFCSFYNILKTCRGHTLERSVFSERTEESSAVQYFQFYGYLSQQQNMMQDYVRTGTYQRAILQNHTDFKDKIVLDVGCGSGILSFFAAQAGARKIYAVEASTMAQHAEVLVKSNNLTDRIVVIPGKVEEVSLPEQVDIIISEPMGYMLFNERMLESYLHAKKYLKPSGNMFPTIGDVHLAPFTDEQLYMEQFTKANFWYQPSFHGVDLSALRGAAVDEYFRQPVVDTFDIRILMAKSVKYTVNFLEAKEGDLHRIEIPFKFHMLHSGLVHGLAFWFDVAFIGSIMTVWLSTAPTEPLTHWYQVRCLFQSPLFAKAGDTLSGTCLLIANKRQSYDISIVAQVDQTGSKSSNLLDLKNPFFRYTGTTPSPPPGSHYTSPSENMWNTGSTYNLSSGMAVAGMPTAYDLSSVIASGSSVGHNNLIPLANTGIVNHTHSRMGSIMSTGIVQGSSGAQGSGGGSTSAHYAVNSQFTMGGPAISMASPMSIPTNTMHYGS
B2: Estrogen receptor alpha (ERα), purified human protein (receptor, UniProt P03372 1-595, looked up)
chain: MTMTLHTKASGMALLHQIQGNELEPLNRPQLKIPLERPLGEVYLDSSKPAVYNYPEGAAYEFNAAAAANAQVYGQTGLPYGPGSEAAAFGSNGLGGFPPLNSVSPSPLMLLHPPPQLSPFLQPHGQQVPYYLENEPSGYTVREAGPPAFYRPNSDNRRQGGRERLASTNDKGSMAMESAKETRYCAVCNDYASGYHYGVWSCEGCKAFFKRSIQGHNDYMCPATNQCTIDKNRRKSCQACRLRKCYEVGMMKGGIRKDRRGGRMLKHKRQRDDGEGRGEVGSAGDMRAANLWPSPLMIKRSKKNSLALSLTADQMVSALLDAEPPILYSEYDPTRPFSEASMMGLLTNLADRELVHMINWAKRVPGFVDLTLHDQVHLLECAWLEILMIGLVWRSMEHPGKLLFAPNLLLDRNQGKCVEGMVEIFDMLLATSSRFRMMNLQGEEFVCLKSIILLNSGVYTFLSSTLKSLEEKDHIHRVLDKITDTLIHLMAKAGLTLQQQHQRLAQLLLILSHIRHMSNKGMEHLYSMKCKNVVPLYDLLLEMLDAHRLHAPTSRGGASVEETDQSHLATAGSTSSHSLQKYYITGEAEGFPATV

What was measured:
[1] = biological target: p300, purified recombinant protein from baculovirus (human, UniProt Q09472 1-2414); assay: cryo-EM structure
p300, purified recombinant protein from baculovirus, sequence (Q09472 whole entry): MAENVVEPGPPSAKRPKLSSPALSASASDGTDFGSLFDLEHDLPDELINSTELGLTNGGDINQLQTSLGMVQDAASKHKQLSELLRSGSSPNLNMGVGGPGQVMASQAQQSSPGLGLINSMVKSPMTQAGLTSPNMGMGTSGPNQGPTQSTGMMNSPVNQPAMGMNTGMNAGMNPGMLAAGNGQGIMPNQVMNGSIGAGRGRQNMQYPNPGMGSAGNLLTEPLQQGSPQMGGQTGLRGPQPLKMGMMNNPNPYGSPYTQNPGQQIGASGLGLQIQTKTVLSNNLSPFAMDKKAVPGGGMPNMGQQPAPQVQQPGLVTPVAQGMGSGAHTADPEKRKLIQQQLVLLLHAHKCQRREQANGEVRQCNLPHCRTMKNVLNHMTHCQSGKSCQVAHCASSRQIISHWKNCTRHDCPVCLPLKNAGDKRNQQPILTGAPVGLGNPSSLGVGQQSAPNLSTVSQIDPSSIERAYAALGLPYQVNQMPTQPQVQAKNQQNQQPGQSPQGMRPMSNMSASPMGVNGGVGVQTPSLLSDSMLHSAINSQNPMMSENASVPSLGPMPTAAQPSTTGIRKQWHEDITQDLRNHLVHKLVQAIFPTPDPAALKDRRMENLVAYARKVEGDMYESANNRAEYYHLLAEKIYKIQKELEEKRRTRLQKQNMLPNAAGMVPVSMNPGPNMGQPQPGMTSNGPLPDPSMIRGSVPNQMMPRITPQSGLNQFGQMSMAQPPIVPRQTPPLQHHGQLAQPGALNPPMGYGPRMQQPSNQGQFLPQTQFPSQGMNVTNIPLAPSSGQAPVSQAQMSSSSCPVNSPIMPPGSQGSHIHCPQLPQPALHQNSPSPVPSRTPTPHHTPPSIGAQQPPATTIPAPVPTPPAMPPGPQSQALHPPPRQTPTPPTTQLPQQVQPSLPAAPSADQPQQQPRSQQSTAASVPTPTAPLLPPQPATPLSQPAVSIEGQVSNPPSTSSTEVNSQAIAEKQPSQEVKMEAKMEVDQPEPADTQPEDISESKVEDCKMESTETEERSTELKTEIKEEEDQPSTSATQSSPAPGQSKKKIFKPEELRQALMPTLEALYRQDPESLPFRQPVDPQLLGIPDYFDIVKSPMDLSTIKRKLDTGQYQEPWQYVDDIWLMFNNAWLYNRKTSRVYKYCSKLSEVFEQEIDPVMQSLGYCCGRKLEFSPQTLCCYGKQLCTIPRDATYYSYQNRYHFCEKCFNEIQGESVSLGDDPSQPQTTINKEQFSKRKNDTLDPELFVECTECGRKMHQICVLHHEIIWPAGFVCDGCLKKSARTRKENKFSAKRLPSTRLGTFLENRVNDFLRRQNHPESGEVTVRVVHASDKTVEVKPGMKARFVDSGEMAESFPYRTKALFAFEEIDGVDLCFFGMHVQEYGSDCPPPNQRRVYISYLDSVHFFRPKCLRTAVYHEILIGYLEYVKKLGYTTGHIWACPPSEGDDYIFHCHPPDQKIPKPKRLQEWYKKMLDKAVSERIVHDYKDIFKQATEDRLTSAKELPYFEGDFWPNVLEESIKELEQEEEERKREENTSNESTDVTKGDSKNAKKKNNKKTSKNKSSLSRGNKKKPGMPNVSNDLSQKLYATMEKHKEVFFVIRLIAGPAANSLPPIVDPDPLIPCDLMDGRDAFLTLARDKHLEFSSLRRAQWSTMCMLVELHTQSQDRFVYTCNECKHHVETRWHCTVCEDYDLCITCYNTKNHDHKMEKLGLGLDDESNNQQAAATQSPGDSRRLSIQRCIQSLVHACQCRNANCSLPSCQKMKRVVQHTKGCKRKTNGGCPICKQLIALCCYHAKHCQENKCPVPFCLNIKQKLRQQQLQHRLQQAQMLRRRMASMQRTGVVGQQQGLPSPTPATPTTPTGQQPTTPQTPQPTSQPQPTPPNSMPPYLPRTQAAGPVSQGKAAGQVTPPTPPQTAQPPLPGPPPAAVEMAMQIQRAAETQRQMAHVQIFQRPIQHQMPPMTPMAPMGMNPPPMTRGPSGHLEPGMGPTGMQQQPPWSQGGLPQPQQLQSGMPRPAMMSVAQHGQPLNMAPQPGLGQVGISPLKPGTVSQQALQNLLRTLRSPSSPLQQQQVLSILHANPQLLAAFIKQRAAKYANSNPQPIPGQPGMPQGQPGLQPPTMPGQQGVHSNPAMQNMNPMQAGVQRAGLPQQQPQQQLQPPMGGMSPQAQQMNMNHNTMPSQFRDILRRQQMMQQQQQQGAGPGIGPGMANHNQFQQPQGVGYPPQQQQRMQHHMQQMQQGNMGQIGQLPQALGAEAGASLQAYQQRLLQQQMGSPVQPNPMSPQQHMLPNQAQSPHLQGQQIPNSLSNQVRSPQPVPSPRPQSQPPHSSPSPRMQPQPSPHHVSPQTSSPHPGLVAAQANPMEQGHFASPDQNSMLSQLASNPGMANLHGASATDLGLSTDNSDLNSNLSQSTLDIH

[2] = biological target: B1; assay: cryo-EM structure

| binding result [1] | binding result [2] | Binder |
| --- | --- | --- |
| binds |  | B1 |
| binds | binds | B2 |
